In paper PMC6779431:

Target: RTP1S_C2-Strep (TM domain deletion mutant of RTP1S, 1-176 amino acids, with a Strep-tag at the C terminus) (mouse)
Test: SEC-MALS; OH-Pak SB-804HQ column, 100 μl of 0.3 mg/ml, 20 mM phosphate buffer pH 8.0, 100 mM NaCl

RTP1S_C2-Strep (TM domain deletion mutant of RTP1S, 1-176 amino acids, with a Strep-tag at the C terminus) (domain or fragment)
stoichiometry N: 2
